Tests used:
Recombinant human GM-CSF [1] = target: T1, Recombinant human GM-CSF (human, UniProt P04141 18-144, biotinylated for the SPR assay (sites not given)); test: surface plasmon resonance analysis, monovalent affinity; format not described
T1 construct: Biotinylated and immobilized on a streptavidin CM5 sensor chip in the SPR assay; used in solution at 0.5 ng/ml in the TF-1 proliferation assay (the species is not restated there); also called hGM-CSF; Granulocyte Macrophage-Colony Stimulating Factor

Recombinant human GM-CSF [2] = target: T1, Recombinant human GM-CSF; test: cell-based or functional assay

T1 sequence (P04141 18-144 limits assumed): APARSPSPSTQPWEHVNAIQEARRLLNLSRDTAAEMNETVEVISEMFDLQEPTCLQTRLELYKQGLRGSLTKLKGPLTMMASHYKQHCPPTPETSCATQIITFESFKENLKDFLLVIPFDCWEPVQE

B1: chimeric 19/2 antibody (antibody, V domains shown)
VH: EVQLQQSGPELVKPGASVKISCKASGYTFTDYNIHWVKQSHGKSLDWIGYIAPYSGGTGYNQEFKNRATLTVDKSSSTAYMELRSLTSDDSAVYYCARRDRFPYYFDYWGQGTTLRVSS
VL: DIVMIQSQKFVSTSVGDRVNITCKASQNVGSNVAWLQQKPGQSPKTLIYSASYRSGRVPDRFTGSGSGTDFILTITTVQSEDLAEYFCQQFNRSPLTFGSGTKLELK
Kd (Recombinant human GM-CSF [1]): ~0.01 nM | EC50 of inhibition of GM-CSF-dependent proliferation of a human TF-1 leukemia cell line (0.5 ng/ml GM-CSF) (Recombinant human GM-CSF [2]): 0.03 nM

Reference: US20080171038A1 (KALOBIOS PHARMACEUTICALS, published 2008)
